This is an account of results in article PMC7785020, “A unique hormonal recognition feature of the human glucagon-like peptide-2 receptor” (Cell Research, 2020).

For assay [1], the target named is T1, GLP-2R Y252^ECL1A (Homo sapiens, UniProt O95838, Y252A).
T1 sequence (O95838 1-553 Y252A): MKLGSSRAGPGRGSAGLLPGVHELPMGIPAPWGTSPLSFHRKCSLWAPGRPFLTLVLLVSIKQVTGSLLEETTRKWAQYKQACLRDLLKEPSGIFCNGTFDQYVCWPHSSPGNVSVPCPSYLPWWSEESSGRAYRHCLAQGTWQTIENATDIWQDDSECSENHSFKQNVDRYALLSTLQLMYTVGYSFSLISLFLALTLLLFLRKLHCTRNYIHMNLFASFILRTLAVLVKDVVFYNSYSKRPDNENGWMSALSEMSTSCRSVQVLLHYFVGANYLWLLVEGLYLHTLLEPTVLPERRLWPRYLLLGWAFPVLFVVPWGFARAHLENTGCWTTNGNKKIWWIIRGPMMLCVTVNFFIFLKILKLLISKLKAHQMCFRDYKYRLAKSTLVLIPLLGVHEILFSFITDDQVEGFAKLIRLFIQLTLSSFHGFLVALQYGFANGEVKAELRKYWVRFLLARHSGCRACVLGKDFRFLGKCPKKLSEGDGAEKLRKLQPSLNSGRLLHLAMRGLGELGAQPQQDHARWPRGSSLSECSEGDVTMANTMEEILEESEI
Briefly: cAMP accumulation, Y252^ECL1A. The format is cell-based. More on the design: WT (1–553); expressed in transfected cells; HEK 293T (cAMP). As for the experimental part:
(§1) They were seeded onto 6-well cell culture plates and transiently transfected with different GLP-2R constructs using Lipofectamine 2000 transfection reagent (Invitrogen, Carlsbad, CA, USA). After 24 h, the transfected cells were seeded onto 384-well microtiter plates (3000 cells per well) in HBSS supplemented with 5 mM HEPES, 0.1% (w/v) bovine serum albumin (BSA) and 0.5 mM 3-isobutyl-1- methylxanthine, and stimulated with increasing concentrations of GLP-2 for 30 min at RT. Eu and Ulight were diluted by cAMP detection buffer and added to the plates separately to terminate the reaction. Plates were incubated at RT for 60 min before measuring the fluorescence intensity at 620 nm and […] by an EnVision multilabel plate reader (PerkinElmer, Boston, USA).

Assay [2] concerns the target T2, GLP-2R R242^ECL1E (Homo sapiens, UniProt O95838, R242E).
T2 sequence (O95838 1-553 R242E): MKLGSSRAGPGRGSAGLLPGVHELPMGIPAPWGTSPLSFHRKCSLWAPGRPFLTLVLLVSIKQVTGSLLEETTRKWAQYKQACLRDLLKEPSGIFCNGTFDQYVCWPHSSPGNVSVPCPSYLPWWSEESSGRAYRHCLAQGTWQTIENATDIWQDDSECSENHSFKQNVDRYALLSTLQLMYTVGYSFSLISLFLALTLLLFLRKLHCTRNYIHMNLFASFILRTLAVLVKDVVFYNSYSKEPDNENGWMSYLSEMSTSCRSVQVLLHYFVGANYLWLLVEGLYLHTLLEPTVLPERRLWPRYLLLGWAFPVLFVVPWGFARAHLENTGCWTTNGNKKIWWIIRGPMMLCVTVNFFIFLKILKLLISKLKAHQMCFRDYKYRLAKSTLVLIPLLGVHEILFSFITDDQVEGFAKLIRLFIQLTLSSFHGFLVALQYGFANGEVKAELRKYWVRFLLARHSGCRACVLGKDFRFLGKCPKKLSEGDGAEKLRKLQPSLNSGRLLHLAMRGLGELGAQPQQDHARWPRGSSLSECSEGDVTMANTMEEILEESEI
Put plainly: cAMP accumulation, R242^ECL1E. The format is cell-based. Also noted: WT (1–553); expressed in transfected cells; HEK 293T (cAMP). As for the experimental part: as §1

Assay [3] has as its target T3, GLP-2R W249^ECL1A (Homo sapiens, UniProt O95838, W249A).
T3 sequence (O95838 1-553 W249A): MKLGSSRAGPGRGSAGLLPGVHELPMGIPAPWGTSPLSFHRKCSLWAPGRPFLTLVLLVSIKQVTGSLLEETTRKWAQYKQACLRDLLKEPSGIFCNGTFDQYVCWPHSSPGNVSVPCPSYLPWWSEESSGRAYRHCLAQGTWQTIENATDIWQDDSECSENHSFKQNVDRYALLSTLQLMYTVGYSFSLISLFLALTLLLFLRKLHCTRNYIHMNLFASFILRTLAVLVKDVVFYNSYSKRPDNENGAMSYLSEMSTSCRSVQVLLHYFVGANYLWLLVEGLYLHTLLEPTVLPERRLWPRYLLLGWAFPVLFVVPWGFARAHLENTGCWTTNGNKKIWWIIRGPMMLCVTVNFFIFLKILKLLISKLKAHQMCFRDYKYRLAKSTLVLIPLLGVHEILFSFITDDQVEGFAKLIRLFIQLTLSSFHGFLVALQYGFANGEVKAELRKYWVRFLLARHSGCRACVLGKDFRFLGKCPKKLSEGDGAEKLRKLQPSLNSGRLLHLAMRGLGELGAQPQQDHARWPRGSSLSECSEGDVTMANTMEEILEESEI
Put plainly: cAMP accumulation, W249^ECL1A. The format is cell-based. Also noted: WT (1–553); expressed in transfected cells; HEK 293T (cAMP). As for the experimental part:
as §1

In assay [4] the test system is GLP-2R. The note with it: cited from earlier work. An excerpt:
Consistently, the truncated metabolite GLP-2(3–33) acts as a part ...

The target in assay [5] is T4, GLP-2R R242(ECL1)A (human) (UniProt O95838).
T4 sequence: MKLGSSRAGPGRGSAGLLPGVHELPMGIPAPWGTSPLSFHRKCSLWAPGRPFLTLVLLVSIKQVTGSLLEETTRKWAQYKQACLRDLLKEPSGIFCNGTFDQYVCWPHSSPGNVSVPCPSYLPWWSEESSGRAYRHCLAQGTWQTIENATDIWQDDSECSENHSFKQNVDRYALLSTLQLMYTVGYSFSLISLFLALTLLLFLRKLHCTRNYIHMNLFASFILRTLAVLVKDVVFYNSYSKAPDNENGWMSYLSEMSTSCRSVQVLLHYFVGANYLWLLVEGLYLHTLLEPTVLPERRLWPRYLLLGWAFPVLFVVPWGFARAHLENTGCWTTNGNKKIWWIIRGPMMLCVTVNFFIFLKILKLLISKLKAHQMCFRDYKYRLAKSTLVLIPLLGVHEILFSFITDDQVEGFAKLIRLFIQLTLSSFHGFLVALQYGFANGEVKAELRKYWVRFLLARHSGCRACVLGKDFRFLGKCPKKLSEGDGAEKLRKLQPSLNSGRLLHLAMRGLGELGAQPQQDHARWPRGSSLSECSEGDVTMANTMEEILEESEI

The target of assay [6] is GLP-2R R242(ECL1)E (human) (UniProt O95838).
The target in assay [7] is GLP-2R (1-553) (WT) (human) (UniProt O95838).
Assay [8] addresses GLP-2R W249^ECL1A (human) (UniProt O95838).
Assay [9] has as its target T5, GLP-2R Y252(ECL1)A (human) (UniProt O95838).
T5 sequence: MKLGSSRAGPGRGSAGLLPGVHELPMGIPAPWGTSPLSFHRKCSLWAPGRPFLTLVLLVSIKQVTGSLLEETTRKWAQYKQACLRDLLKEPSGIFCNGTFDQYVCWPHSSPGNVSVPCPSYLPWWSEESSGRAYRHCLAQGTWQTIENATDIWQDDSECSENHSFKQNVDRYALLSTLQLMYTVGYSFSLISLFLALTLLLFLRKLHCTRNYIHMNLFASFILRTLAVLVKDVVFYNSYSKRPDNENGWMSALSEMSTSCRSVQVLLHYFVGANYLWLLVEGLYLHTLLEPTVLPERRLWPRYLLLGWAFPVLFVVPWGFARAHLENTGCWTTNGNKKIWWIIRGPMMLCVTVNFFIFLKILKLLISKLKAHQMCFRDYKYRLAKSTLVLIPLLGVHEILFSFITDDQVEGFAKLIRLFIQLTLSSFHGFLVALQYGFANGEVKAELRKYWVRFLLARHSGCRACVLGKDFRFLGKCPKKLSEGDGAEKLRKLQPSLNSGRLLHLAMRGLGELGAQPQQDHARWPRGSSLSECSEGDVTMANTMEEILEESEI

The target of assay [10] is T4, GLP-2R R242(ECL1)A (human). This is another data set of the same source.
Assay [11] has as its target GLP-2R R242(ECL1)E (human) (UniProt O95838). The source holds these as a separate data set.
In assay [12] the target is GLP-2R (1-553) (WT) (human) (UniProt O95838). This is another data set of the same source.
Assay [13] deals with GLP-2R W249^ECL1A (human) (UniProt O95838). The source holds these as a separate data set.
Assay [14] deals with T5, GLP-2R Y252(ECL1)A (human). This is another data set of the same source.
Assay [15] addresses Human GLP-2R WT (1–553) (human) (UniProt O95838).
The target of assay [16] is GLP-1R (WT) (Homo sapiens, UniProt P43220).
Sequence of GLP-1R (WT) (P43220 24-463): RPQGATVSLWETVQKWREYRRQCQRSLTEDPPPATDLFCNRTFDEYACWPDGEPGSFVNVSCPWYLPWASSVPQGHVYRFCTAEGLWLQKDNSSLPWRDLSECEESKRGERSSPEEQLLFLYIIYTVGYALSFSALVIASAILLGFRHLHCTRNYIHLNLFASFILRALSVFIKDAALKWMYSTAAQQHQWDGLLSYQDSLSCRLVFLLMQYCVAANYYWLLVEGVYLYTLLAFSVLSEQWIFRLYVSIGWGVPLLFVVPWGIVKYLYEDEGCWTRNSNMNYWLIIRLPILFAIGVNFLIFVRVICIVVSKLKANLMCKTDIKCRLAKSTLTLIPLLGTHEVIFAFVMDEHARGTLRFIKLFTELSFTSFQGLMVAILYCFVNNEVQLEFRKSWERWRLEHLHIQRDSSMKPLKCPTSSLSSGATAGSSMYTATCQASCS

On to `CC[C@H](C)[C@H](NC(=O)[C@H](Cc1ccccc1)NC(=O)[C@H](CCC(=O)O)NC(=O)[C@H](CCCCN)NC(=O)[C@H](C)NC(=O)[C@H](C)NC(=O)[C@H](CCC(N)=O)NC(=O)CNC(=O)[C@H](CCC(=O)O)NC(=O)[C@H](CC(C)C)NC(=O)[C@H](Cc1ccc(O)cc1)NC(=O)[C@H](CO)NC(=O)[C@H](CO)NC(=O)[C@@H](NC(=O)[C@H](CC(=O)O)NC(=O)[C@H](CO)NC(=O)[C@@H](NC(=O)[C@H](Cc1ccccc1)NC(=O)[C@@H](NC(=O)CNC(=O)[C@H](CCC(=O)O)NC(=O)[C@H](C)NC(=O)[C@@H](N)Cc1c[nH]cn1)[C@@H](C)O)[C@@H](C)O)C(C)C)C(=O)N[C@@H](C)C(=O)N[C@@H](Cc1c[nH]c2ccccc12)C(=O)N[C@@H](CC(C)C)C(=O)N[C@H](C(=O)N[C@@H](CCCCN)C(=O)NCC(=O)N[C@@H](CCCNC(=N)N)C(=O)NCC(=O)O)C(C)C` [GLP-1(1-31)], for which the results for the EC50 in assay [1], in [2] and in [3] were 0.631 nM, 2.51 nM and 2.51 nM, respectively. The Emax in assay [1] (HEK-293T, Table S5, Y252A, HEK 293T, 30 min, RT, mean ± SEM, n ≥ 3 in duplicate, read-out: cAMP Emax (% WT)) was -0.7 ± 1.1%; in assay [2] (HEK-293T, Table S5, R242E, HEK 293T, 30 min, RT, mean ± SEM, n ≥ 3 in duplicate, read-out: cAMP Emax (% WT)), -2.2 ± 0.9%; in [3] (HEK-293T, Table S5, W249A, HEK 293T, 30 min, RT, mean ± SEM, n ≥ 3 in duplicate, read-out: cAMP Emax (% WT)), -2.4 ± 0.7%.

In the case of “GLP-2(3–33): truncated metabolite of GLP-2, partial agonist (DGSFSDEMNTILDNLAARDFINWLIQTKITD; Glucagon-like peptide 2; UniProt P01275 148-178, looked up, fragment)”, in assay [4] (GLP-2R), the “type of agonism (in words)” value was “partial agonist”. In [4] (vs GLP-2), the “reduction in binding affinity (in words)” value is listed as “great reduction in binding affinity”; the “reduction in potency (in words)” value was “great reduction in binding affinity and potency”.

Human GLP-2(1-33) (peptide): the Table S3: pEC50 of GLP-2-induced cAMP accumulation, HEK 293T cells transfected with the receptor mutant is 9.8 -log M in assay [5], 9.1 -log M in [6], 7.2 -log M in [8] and 9.8 -log M in assay [9]. Besides, in assay [7], the Table S3: pEC50 of GLP-2-induced cAMP accumulation, HEK 293T cells transfected with the receptor (wild-type reference of the table) was 10.4 -log M. In addition, the Table S5: pEC50 of GLP-2(1-33)-induced cAMP accumulation, cells transfected with the receptor mutant was 9.9 -log M in assay [10], 9.6 -log M in assay [11], 7.4 -log M in assay [13] and 10.1 -log M in assay [14]. Moreover, the Table S5: pEC50 of GLP-2(1-33)-induced cAMP accumulation, cells transfected with the receptor (wild-type reference of the table) in [12] was 10.8 -log M.

Consider chimeric GLP-2/GLP-1(1–6) (peptide), for which, in assay [15], the peptide-induced cAMP accumulation for GLP-2R: fold decrease against native GLP-2 came to 12 fold.

The molecule chimeric GLP-2/GLP-1(20–33) (peptide) yielded a peptide-induced cAMP accumulation for GLP-2R: fold reduction of potency in assay [15] of 17 fold.

B1: chimeric GLP-2/GLP-1(7-19) (peptide)
peptide: HADGSFTSDVSSYLEGQAARDFINWLIQTKITD
Turning to B1, the Table S5: pEC50 of cAMP accumulation induced by the chimeric peptide (7-19), cells transfected with GLP-1R (WT) in [16] was 10.9 -log M. Also, in [12], the Table S5: pEC50 of cAMP accumulation induced by the chimeric peptide (7-19), cells transfected with GLP-2R (WT) is 8.5 -log M.
